The values below come from patent US20160376333A1 (University of Washington, published 2016).

Experiment [1] has as its target T1, Epstein-Barr virus BHRF1 a.a. 1-161 with C-terminal avi-6his tag (Epstein-Barr virus).
T1 construct: also called EBV BHRF1; BHRF1-biotin
T1 chain: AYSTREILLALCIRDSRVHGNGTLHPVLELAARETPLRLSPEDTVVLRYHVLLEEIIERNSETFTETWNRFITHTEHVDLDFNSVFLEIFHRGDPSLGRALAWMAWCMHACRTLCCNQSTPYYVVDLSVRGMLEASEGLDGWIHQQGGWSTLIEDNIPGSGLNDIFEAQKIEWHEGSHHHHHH
The experiment can be described thus: yeast display library, FACS sort at 400 nM BHRF1, deep sequencing.

Experiment [2] has as its target T1, Epstein-Barr virus BHRF1 a.a. 1-161 …. The experiment can be described thus: yeast display library, FACS sort at 100 nM BHRF1, deep sequencing.

B1: Index 48 (designed binder)
chain: GEKGKEKAQKFRDIIKDILEEAIRLAKDLAEDAKKFDLKLEKLLEATLKWIAAALMAIGDLFNFKDLAEKEVRERHDRGEISSDRRDKYEKEAREGADEAAKELSKLAKIAEKKILEG
In the case of B1, the results for the Log2 enrichment ratio in experiment [1] and in experiment [2] were -2.33 log2 and -2.8 log2, respectively.

B2: Index 52 (designed binder)
chain: GNDKEKFREDVKKKAKYALWKLKKLADEAKERALKFDPSEEMKREFTLEWIAWALEAIGDIFNAWLDGKKYADEAKKQGKARKEEAEETKKEATRIAKEAHEKASELARKILYHMLLG
With B2, the Log2 enrichment ratio in experiment [1] is -0.2 log2; in experiment [2], -0.83 log2.

B3: Index 61 (designed binder)
chain: GEHLDELLLKLLWLAIQFAERAKLTIELWKLWGKITQSYNEWAEKAARDWIAAALMIIGDMFNHKQKAEEEAKKFAKKGLKRKEELEELLKKLEEFIKRAKKLIKETAQKHEEASKMG
For B3, the values for the Log2 enrichment ratio in experiment [1] and in experiment [2] were -3.54 log2 and -2.79 log2, respectively.

B4: Index 43 (designed binder)
chain: GKKAEEVLKEARKLHEAQLRYAYLMMKDWREKKQQEEKQTQREEKWTAWWIALMLMAIGDIFNFAEWAKEELDKLREKGLVEKKKAEEAKEKAEKLAEEASRRASEFAQLFAKWDKEG
In the case of B4, the figures for the Log2 enrichment ratio in experiment [1] and in experiment [2] were -3.04 log2 and -2.44 log2, respectively.

B5: Index 39 (designed binder)
chain: GKKYLKAARLALYLLWEAYLRGYLNLLLDELEAEFFDPHDERKIRYTINWIADALMLIGDLFNARLKMEKALWELKKEGKLREEDYEKMERLFRKWMELAFKWLEHFREMAEKAKKKG
With B5, the Log2 enrichment ratio in experiment [1] was -2.01 log2; in experiment [2] it was -2.08 log2.

B6: Index 65 (designed binder)
chain: GNDLKDIARQIEEQAKKALDDMAKLIRELAEKAEKFYPSKDDIRRLTHYWIAAALMAIGDAFNRLQEARRRAEWLRKWGLRREEEAEKAKKEAEERHERAKELAHKMGDEMEEKLKRG
Turning to B6, the Log2 enrichment ratio in experiment [1] is -2.31 log2; in experiment [2] it was -3.2 log2.

B7: Index 51 (designed binder)
chain: GWTALWLKDFTEQEARKKFREALYYGWMMAMRALEHQLQADELAMWTALWIAAMLEAIGDMFNDKLRAEKYALLLIWLNLYHKDIAEKWREEHEEKLKEALQEMFEAAEKFDKFAKFG
As to B7, the Log2 enrichment ratio is -2.43 log2 in experiment [1] and -2.53 log2 in experiment [2].

B8: Index 50 (designed binder)
chain: GKRAEELREEAEERAKEAFKETEQKLREVEERSRQTLARDEELRKAALLWIAAALMGIGDLFNKKEKGKEALEKEEKNGKRRTERAEREKERLEKEVSREAQRFKKKGEEEEKKHKYG
On to B8, for which the Log2 enrichment ratio in experiment [1] is -3.47 log2; in experiment [2], -3.79 log2.

B9: Index 55 (designed binder)
chain: GEEAEKLIKEAKDKFEDLREKAEELLYKMWLIRYLSSKDTKRGEIYTKKWIAIMLMMIGDAFNMALRARLYLEERRKRGEKHEEEAEEKERRARWEQEDAYKKAKKGAKRARLYDKLG
For the molecule B9, the Log2 enrichment ratio in experiment [1] is -3.29 log2; in experiment [2], -2.69 log2.

B10: Index 63 (designed binder)
chain: GDDKEKVKDYAKKRALEDVLRAKELAEKFIDEAKKSDHSKQNERQYIIAWIAFMLMAIGDVFNAMMEAKRLAELLKRLGLRRWEEAEEVKQKAEELAEEASRLLADLGKDFAKKIEQG
Regarding B10, the results for the Log2 enrichment ratio in experiment [1] and in experiment [2] were -2.41 log2 and -2.52 log2, respectively.

B11: Index 44 (designed binder)
chain: GESGEWILEKTREKIERAIRDAEKKLRLIILLIRLFHPGDDLRALFAAIWIAAELELIGDIFNEKQDAEEKFKELLKKNQFRWEELWRKWLILEWIFQKARRKSKELAERAKKAFDFG
B11: the Log2 enrichment ratio in experiment [1] was -3.16 log2; in experiment [2], -3.29 log2.

B12: Index 41 (designed binder)
chain: GEQEDKVKERAKRGALERAREMFEKMRKAIYLAELYINNDEGKTKLTDRWIAFALMMIGDIFNIALEARLEALKLVLKGLRSQEDAEKVKKLAEEAEREAAKRAAKLGDKMDEKEHEG
On to B12, for which the Log2 enrichment ratio in experiment [1] is -2.39 log2; in experiment [2], -2.17 log2.

B13: Index 38 (designed binder)
chain: GEKLKKLAEELEKKFRKLFFILKDELDRAYLIALKTQVQRQELARDTKLWIAVALMIIGDLFNAEIQGKELRDKLIKKNQVEEQKAKEFWKKWEEVKQRAEELIKKGGEMVERLADYG
For the molecule B13, the Log2 enrichment ratio was -1.46 log2 in experiment [1] and -1.71 log2 in experiment [2].

B14: Index 40 (designed binder)
chain: GNEAEQRREEFKEIMEKKKDEAEKKSEKIKRLALAFDLSDDDKTKATDEWIAISLEIIGDAFNFGEGLKDEAKRRKKRGLKRDEEVDKFEKIAEQAIEELRKLAEEADERGAKHLRDG
For B14, the Log2 enrichment ratio in experiment [1] is -4.69 log2; in experiment [2], -3.7 log2.

B15: Index 59 (designed binder)
chain: GITLEKLWKEAKEKIRKREDEALLKAEWFKKKANNVLDLNDMKAKMTAKWIALALMAIGDIFNYLLETEIKARLLVRLGLFRQEEAEKKKEEAKEEAIKSSRNIAKRGEEAAKQMEQG
In the case of B15, the Log2 enrichment ratio in experiment [1] is -2.36 log2; in experiment [2] it was -2.86 log2.

B16: Index 56 (designed binder)
chain: GESAEKWRERLREKAGYWAEYAFWLADEAEKRAKIYSASSERRAEWTMRWIAIALAAIGDVFNEGQKADEKFDELKKQNKRSDDDLDDYKDKFKEEVEKALRKLLKAGDKIADLAEQG
B16: the results for the Log2 enrichment ratio in experiment [1] and in experiment [2] were -3.81 log2 and -3.49 log2, respectively.

B17: Index 57 (designed binder)
chain: GDLKEELKERAKKIIRRALDEAKDAEDLIKKEAEKRYVTTEMATKFVAWWIAGALMIIGDIFNAAREVKERAEKALKWGVLSQDDIKELLLELENLEQEAKERAKEFGEKAEKFKKMG
For the molecule B17, the Log2 enrichment ratio in experiment [1] is -2.85 log2; in experiment [2], -1.97 log2.

B18: Index 64 (designed binder)
chain: GLSGDDAEDFARQEIEKRAREAEEKARKLIWLASKYDAKREEALKFHLRWIAFALMMIGDAFNAEEIAREMLEIARELGLTREEEAKEKLEKIRKKETEASKKMAERGRRLDNQANNG
In the case of B18, the Log2 enrichment ratio is -1.68 log2 in experiment [1] and -3.51 log2 in experiment [2].

B19: Index 46 (designed binder)
chain: GRDGERVVKWAKNQHENTVDEAKDKMDNQEDEMRKKNADDEKLRKETHKWIAFALEAIGDVFNDAMQAFELLERFKKFGQQEQKKLDEFKEKVERLAREASRKLTYLGKRFALDIESG
B19: the Log2 enrichment ratio was -3.6 log2 in experiment [1] and -3.41 log2 in experiment [2].

B20: Index 60 (designed binder)
chain: GRQEDEIKDEATKRALEILQKLEQKVRKAKKFAKYGLLLQRWWAWITKVWIAAALDAIGDAFNLGEELKRILEELRRRGLSSEEKAQEIKNWIEWLEKWVAIMAKLFGEELEKQFKQG
Take B20: the Log2 enrichment ratio is -2.63 log2 in experiment [1] and -2.91 log2 in experiment [2].

B21: Index 53 (designed binder)
chain: GHVAEEEIRRFLRKAEKVLQEARRKMEKRRREAEEHDTTTWLLARGTIEWIADALMLIGDAFNFRREAYIRGELYKKFGLIREDDLKDRLKEADQRLDEFAKKMALFGLELHLRLREG
Consider B21, for which the values for the Log2 enrichment ratio in experiment [1] and in experiment [2] were 0.4 log2 and -0.29 log2, respectively.

B22: Index 45 (designed binder)
chain: GYSLDDFLKLAKLLAELLKRFIRKEAERLRELKEWLLDTTLGRLILTLEWIAIELMIIGDIFNAKMLLDKFAKYAEWLGLMKEEEAKQAKKLAKLLLDEVKDEARKKADDGEKFAEEG
For B22, the Log2 enrichment ratio is -3.17 log2 in experiment [1] and -2.44 log2 in experiment [2].

B23: Index 54 (designed binder)
chain: GDKHEEAKEEAEKKFEKLRIEARLKAEWLKKAGKYGLQLQELWAKLSDYWIAFALEIIGDLFNFLEEHKEKIEKDLKKGEALDDRADDILKDLEKKAKEVSKHAMKLGREAQQFIELG
Consider B23, for which the Log2 enrichment ratio in experiment [1] was -2.24 log2; in experiment [2] it was -3.22 log2.

B24: Index 42 (designed binder)
chain: GQQEEQFIEDFKKEVLRAADDAKDDMEKRAEEFLKKDGDDNEKKRKILKWIADALEAIGDLFNAAQEAKRRAELYFKLGLLKKERKEEAEEEAEKAKEEASKKLHKAAREARIKMEKG
As for B24, the Log2 enrichment ratio in experiment [1] was -3.15 log2; in experiment [2], -3.63 log2.

B25: Index 58 (designed binder)
chain: GEKAKKLEEYAREEIERALREGGDLMEEEREFGEKTELTTEWKHRAMAYWIAAALMIIGDGFNALQFIEEEGRKFIRKGEFARQKIEEHKERAKERLEKALKQAKKRGDELDRFARLG
On to B25, for which the Log2 enrichment ratio is -2.11 log2 in experiment [1] and -2.36 log2 in experiment [2].

B26: Index 62 (designed binder)
chain: GKLGEELREDAEKKGEEDMRRFERRIREIKRKLKFGYDFEQRKREATHKWIAFALEMIGDAFNFAQKLERALELFKKWNIYSEDDLRELKKRFEEAKEKLKKFADRIRDEGLKAVLLG
As for B26, the Log2 enrichment ratio was -2.65 log2 in experiment [1] and -3.21 log2 in experiment [2].

B27: Index 49 (designed binder)
chain: GWSKDWVLEWLREKLEEIDREALWKFILIWIEKMLGVDDDEQRRKDAAKWIAGSLEAIGDIFNAMMWAKRLLEWLEKANLVRREELEKAKQKAEELAKKAALRAAIYSKIAEEWLWKG
On to B27, for which the Log2 enrichment ratio was -1.22 log2 in experiment [1] and -2.7 log2 in experiment [2].
